In the supplement of paper PMC10567573:

B1: CHCHD6 (parent)
chain: MYKLSSEQFHEAASKMESTIKPRR

Variants of: B1
Assay: protein stability index of a GFP-peptide fusion (GPS, HEK-293T) (PSI 1-6); higher = more stable
Settings: c terminus: a fixed tail appended
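Note: lentivirally expressed fusions sorted by FACS into six bins by GFP to DsRed ratio, PSI derived from sequencing read proportions per bin multiplied by bin number.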

Row | Variant | protein stability index
1 | MYKLSSEQFHEAASKMESTIIPRR | 3.44
2 | MYKLSSEQFHEAASKMESTILPRR | 3.04
3 | MYKLSSEQFHEAASKMESTIFPRR | 3
4 | MYKLSSEQFHEAASKMESTIHPRR | 3.86
5 | MYKLSSEQFHEAASKMESTIPPRR | 4.13
6 | MYKLSSEQFHEAASKMESTIAPRR | 3.49
7 | MYKLSSEQFHEAASKMESTIDPRR | 3.69
8 | MYKLSSEQFHEAASKMESTIEPRR | 4.33
9 | MYKLSSEQFHEAASKMESTIMPRR | 3.09
10 | MYKLSSEQFHEAASKMESTICPRR | 4.22
11 | MYKLSSEQFHEAASKMESTINPRR | 3.89
12 | MYKLSSEQFHEAASKMESTIGPRR | 3.5
13 | MYKLSSEQFHEAASKFESTIKPRR | 3.53
14 | MYKLSSEQFHEAASKQESTIKPRR | 4.47
15 | MYKLSSEQFHEAASKCESTIKPRR | 3.58
16 | MYKLSSEQFHEAASKAESTIKPRR | 4.17
17 | MYKLSSEQFHEAASKRESTIKPRR | 3.94
18 | MYKLSSEQFHEAASKEESTIKPRR | 4.55
19 | MYKLSSEQFHEAASKPESTIKPRR | 4.31
20 | MYKLSSEQFHEAASKNESTIKPRR | 4.17
21 | MYKLSSEQFHEAASKYESTIKPRR | 3.45
22 | MYKLSSEQFHEAASKLESTIKPRR | 3.41
23 | MYKLSSEQFHEAASKSESTIKPRR | 4.16
24 | MYKLSSEQFHEAASKTESTIKPRR | 4.34

Row | Variant | protein stability index
25 | MYKLSSEQFHEAASKGESTIKPRR | 3.77
26 | MYKLSSEQFHEAASKVESTIKPRR | 4.46
27 | MYKLSSEQFHEAASKDESTIKPRR | 4.09
28 | MYKLSSEQFHEAASKIESTIKPRR | 3.53
29 | MYKLSSEQFHEAASKWESTIKPRR | 3.41
30 | MYKLSSEQFHEAASKHESTIKPRR | 4.44
31 | MYKLSSEQFHEAASKKESTIKPRR | 4.31
32 | MYKLSSEQFHEACSKMESTIKPRR | 3.33
33 | MYKLSSEQFHEAISKMESTIKPRR | 2.93
34 | MYKLSSEQFHEAPSKMESTIKPRR | 3.81
35 | MYKLSSEQFHEAVSKMESTIKPRR | 4.02
36 | MYKLSSEQFHEAWSKMESTIKPRR | 2.95
37 | MYKLSSEQFHEARSKMESTIKPRR | 3.66
38 | MYKLSSEQFHEAQSKMESTIKPRR | 3.61
39 | MYKLSSEQFHEAYSKMESTIKPRR | 3.36
40 | MYKLSSEQFHEADSKMESTIKPRR | 4.25
41 | MYKLSSEQFHEAESKMESTIKPRR | 4.33
42 | MYKLSSEQFHEAKSKMESTIKPRR | 3.86
43 | MYKLSSEQFHEANSKMESTIKPRR | 4.24
44 | MYKLSSEQFHEASSKMESTIKPRR | 3.81
45 | MYKLSSEQFHEALSKMESTIKPRR | 3.09
46 | MYKLSSEQFHEAMSKMESTIKPRR | 2.59
47 | MYKLSSEQFHEATSKMESTIKPRR | 4.02
48 | MYKLSSEQFHEAHSKMESTIKPRR | 3.9

Row | Variant | protein stability index
49 | MYKLSSEQFHEAGSKMESTIKPRR | 3.83
50 | MYKLSSEQFHEAFSKMESTIKPRR | 2.88
51 | MYKLSSEQFHEAASKMEGTIKPRR | 3.7
52 | MYKLSSEQFHEAASKMEWTIKPRR | 2.98
53 | MYKLSSEQFHEAASKMENTIKPRR | 3.97
54 | MYKLSSEQFHEAASKMEITIKPRR | 2.68
55 | MYKLSSEQFHEAASKMEATIKPRR | 4.41
56 | MYKLSSEQFHEAASKMEETIKPRR | 3.71
57 | MYKLSSEQFHEAASKMELTIKPRR | 3.4
58 | MYKLSSEQFHEAASKMEMTIKPRR | 3.31
59 | MYKLSSEQFHEAASKMEDTIKPRR | 4.24
60 | MYKLSSEQFHEAASKMEFTIKPRR | 2.78
61 | MYKLSSEQFHEAASKMECTIKPRR | 3.99
62 | MYKLSSEQFHEAASKMEQTIKPRR | 3.47
63 | MYKLSSEQFHEAASKMETTIKPRR | 4.1
64 | MYKLSSEQFHEAASKMEKTIKPRR | 3.58
65 | MYKLSSEQFHEAASKMERTIKPRR | 4.13
66 | MYKLSSEQFHEAASKMEPTIKPRR | 3.8
67 | MYKLSSEQFHEAASKMEHTIKPRR | 4.51
68 | MYKLSSEQFHEAASKMEYTIKPRR | 3.42
69 | MYKLSSEQFHEAASKMEVTIKPRR | 3.77
70 | MYKLSSEQFHEAASKMSSTIKPRR | 3.71
71 | MYKLSSEQFHEAASKMVSTIKPRR | 3.27
72 | MYKLSSEQFHEAASKMKSTIKPRR | 2.73

Row | Variant | protein stability index
73 | MYKLSSEQFHEAASKMLSTIKPRR | 3.08
74 | MYKLSSEQFHEAASKMISTIKPRR | 3.85
75 | MYKLSSEQFHEAASKMWSTIKPRR | 2.4
76 | MYKLSSEQFHEAASKMNSTIKPRR | 3.57
77 | MYKLSSEQFHEAASKMRSTIKPRR | 3.29
78 | MYKLSSEQFHEAASKMHSTIKPRR | 2.92
79 | MYKLSSEQFHEAASKMPSTIKPRR | 3.15
80 | MYKLSSEQFHEAASKMFSTIKPRR | 2.69
81 | MYKLSSEQFHEAASKMCSTIKPRR | 3.46
82 | MYKLSSEQFHEAASKMTSTIKPRR | 3.19
83 | MYKLSSEQFHEAASKMASTIKPRR | 3.24
84 | MYKLSSEQFHEAASKMQSTIKPRR | 3.71
85 | MYKLSSEQFHEAASKMMSTIKPRR | 3.55
86 | MYKLSSEQFHEAASKMGSTIKPRR | 4.03
87 | MYKLSSEQFHEAASKMDSTIKPRR | 4
88 | MYKLSSEQFHEAASKMYSTIKPRR | 3
89 | MYKLSSEQFHEAASMMESTIKPRR | 3.84
90 | MYKLSSEQFHEAASWMESTIKPRR | 3.73
91 | MYKLSSEQFHEAASRMESTIKPRR | 3.72
92 | MYKLSSEQFHEAASAMESTIKPRR | 3.49
93 | MYKLSSEQFHEAASFMESTIKPRR | 3.91
94 | MYKLSSEQFHEAASGMESTIKPRR | 3.82
95 | MYKLSSEQFHEAASPMESTIKPRR | 3.93
96 | MYKLSSEQFHEAASYMESTIKPRR | 3.5

Row | Variant | protein stability index
97 | MYKLSSEQFHEAASDMESTIKPRR | 4.18
98 | MYKLSSEQFHEAASTMESTIKPRR | 4.37
99 | MYKLSSEQFHEAASCMESTIKPRR | 3.54
100 | MYKLSSEQFHEAASSMESTIKPRR | 4.04
101 | MYKLSSEQFHEAASEMESTIKPRR | 4.42
102 | MYKLSSEQFHEAASNMESTIKPRR | 4.42
103 | MYKLSSEQFHEAASHMESTIKPRR | 3.75
104 | MYKLSSEQFHEAASVMESTIKPRR | 4.2
105 | MYKLSSEQFHEAASQMESTIKPRR | 4.74
106 | MYKLSSEQFHEAASIMESTIKPRR | 3.67
107 | MYKLSSEQFHEAASLMESTIKPRR | 3.73
108 | MYKLSSEQFHEAASKMESTQKPRR | 3.82
109 | MYKLSSEQFHEAASKMESTTKPRR | 4.25
110 | MYKLSSEQFHEAASKMESTCKPRR | 4.01
111 | MYKLSSEQFHEAASKMESTMKPRR | 4.21
112 | MYKLSSEQFHEAASKMESTRKPRR | 3.97
113 | MYKLSSEQFHEAASKMESTHKPRR | 3.95
114 | MYKLSSEQFHEAASKMESTDKPRR | 4.22
115 | MYKLSSEQFHEAASKMESTLKPRR | 3.23
116 | MYKLSSEQFHEAASKMESTWKPRR | 3.07
117 | MYKLSSEQFHEAASKMESTPKPRR | 4.56
118 | MYKLSSEQFHEAASKMESTFKPRR | 3.51
119 | MYKLSSEQFHEAASKMESTSKPRR | 4.21
120 | MYKLSSEQFHEAASKMESTVKPRR | 4.08

Row | Variant | protein stability index
121 | MYKLSSEQFHEAASKMESTEKPRR | 4.74
122 | MYKLSSEQFHEAASKMESTNKPRR | 3.56
123 | MYKLSSEQFHEAASKMESTGKPRR | 4.3
124 | MYKLSSEQFHEAASKMESTKKPRR | 4.05
125 | MYKLSSEQFHEAASKMESTAKPRR | 4.38
126 | MYKLSSEQFHEAASKMESTYKPRR | 3.44
127 | MYKLSSEQFHEAASKMESCIKPRR | 3.67
128 | MYKLSSEQFHEAASKMESWIKPRR | 2.15
129 | MYKLSSEQFHEAASKMESAIKPRR | 3.78
130 | MYKLSSEQFHEAASKMESKIKPRR | 3.77
131 | MYKLSSEQFHEAASKMESRIKPRR | 3.88
132 | MYKLSSEQFHEAASKMESYIKPRR | 3.4
133 | MYKLSSEQFHEAASKMESDIKPRR | 3.49
134 | MYKLSSEQFHEAASKMESLIKPRR | 3.67
135 | MYKLSSEQFHEAASKMESGIKPRR | 3.76
136 | MYKLSSEQFHEAASKMESFIKPRR | 3.63
137 | MYKLSSEQFHEAASKMESPIKPRR | 3.68
138 | MYKLSSEQFHEAASKMESEIKPRR | 3.89
139 | MYKLSSEQFHEAASKMESIIKPRR | 3.12
140 | MYKLSSEQFHEAASKMESNIKPRR | 4
141 | MYKLSSEQFHEAASKMESSIKPRR | 3.82
142 | MYKLSSEQFHEAASKMESQIKPRR | 4.09
143 | MYKLSSEQFHEAASKMESHIKPRR | 4.29
144 | MYKLSSEQFHEAASKMESVIKPRR | 3.82

Row | Variant | protein stability index
145 | MYKLSSEQFHEAASKMESMIKPRR | 3.72
146 | MYKLSSEQFHEAAFKMESTIKPRR | 3.05
147 | MYKLSSEQFHEAALKMESTIKPRR | 3.1
148 | MYKLSSEQFHEAAAKMESTIKPRR | 3.56
149 | MYKLSSEQFHEAANKMESTIKPRR | 3.78
150 | MYKLSSEQFHEAADKMESTIKPRR | 3.61
151 | MYKLSSEQFHEAAYKMESTIKPRR | 2.83
152 | MYKLSSEQFHEAAWKMESTIKPRR | 3.18
153 | MYKLSSEQFHEAAMKMESTIKPRR | 3.47
154 | MYKLSSEQFHEAAPKMESTIKPRR | 3.82
155 | MYKLSSEQFHEAATKMESTIKPRR | 3.81
156 | MYKLSSEQFHEAAHKMESTIKPRR | 3.9
157 | MYKLSSEQFHEAAEKMESTIKPRR | 4.12
158 | MYKLSSEQFHEAAIKMESTIKPRR | 2.86
159 | MYKLSSEQFHEAARKMESTIKPRR | 3.48
160 | MYKLSSEQFHEAAKKMESTIKPRR | 3.68
161 | MYKLSSEQFHEAAQKMESTIKPRR | 4.24
162 | MYKLSSEQFHEAACKMESTIKPRR | 3.29
163 | MYKLSSEQFHEAAGKMESTIKPRR | 3.87
164 | MYKLSSEQFHEAAVKMESTIKPRR | 4.11
165 | MYKLSSEQFHEGASKMESTIKPRR | 3.69
166 | MYKLSSEQFHEFASKMESTIKPRR | 3.27
167 | MYKLSSEQFHEWASKMESTIKPRR | 2.55
168 | MYKLSSEQFHEEASKMESTIKPRR | 4.56

Row | Variant | protein stability index
169 | MYKLSSEQFHECASKMESTIKPRR | 3.31
170 | MYKLSSEQFHEHASKMESTIKPRR | 4.12
171 | MYKLSSEQFHELASKMESTIKPRR | 2.92
172 | MYKLSSEQFHEIASKMESTIKPRR | 2.88
173 | MYKLSSEQFHEVASKMESTIKPRR | 3.58
174 | MYKLSSEQFHEPASKMESTIKPRR | 4.23
175 | MYKLSSEQFHEDASKMESTIKPRR | 4.17
176 | MYKLSSEQFHEYASKMESTIKPRR | 3.39
177 | MYKLSSEQFHERASKMESTIKPRR | 3.55
178 | MYKLSSEQFHEKASKMESTIKPRR | 3.59
179 | MYKLSSEQFHEQASKMESTIKPRR | 4.04
180 | MYKLSSEQFHETASKMESTIKPRR | 3.75
181 | MYKLSSEQFHEMASKMESTIKPRR | 3.14
182 | MYKLSSEQFHENASKMESTIKPRR | 2.9
183 | MYKLSSEQFHESASKMESTIKPRR | 3.97
184 | MYKLSSEQFHSAASKMESTIKPRR | 3.37
185 | MYKLSSEQFHVAASKMESTIKPRR | 3.4
186 | MYKLSSEQFHYAASKMESTIKPRR | 3.52
187 | MYKLSSEQFHTAASKMESTIKPRR | 3.75
188 | MYKLSSEQFHWAASKMESTIKPRR | 2.77
